Laboratory results published in patent EP4711453A1, “PHENYLALANINE LYASE MUTANT, AND CONJUGATE THEREOF OR PHARMACEUTICALLY ACCEPTABLE SALT THEREOF” (Peg-Bio Biopharm Co., Ltd. (Chongqing), priority 2023, dated 2024).
Where “and” joins values, the source holds several entries; their conditions need not be identical. Identical values can stand only once.

Columns and labels:
[1] = design: species or system SD rats; conditions: rat, in vivo, sc, 2 mg/kg
Experimental: To evaluate PEGylated conjugates of phenylalanine lyase or its mutants with different average degrees of modification, the inventors divided SD rats into four groups (n=6 per group). The animals were subcutaneously injected with PL54-1 and PL54-5 (average degrees of modification: 10.54 and 13.60, respectively) and PL5-1 and PL5-5 (average degrees of modification: 8.2 and 10.53, respectively) from Table 3 of Example 2 at a dose of 2 mg/kg once a week for four doses. Blood samples were collected on D1 (Day 1), D3 (Day 3), and D7 (Day 7) after the first dose, as well as on D3 and D7 following each subsequent dose. The concentrations of PL54-1, PL54-5, PL5-1, and PL5-5 in rat serum were determined by sandwich ELISA to assess plasma drug concentration maintenance after multiple administrations. Anti-PEG-IgM/IgG antibody titers in rat serum from each group were measured using indirect ELISA (coating with PEG-BSA, adding positive rat anti-PEG Abs/test serum samples, followed by HRP-conjugated anti-rat IgM/IgG detection), while bridging ELISA (coating with PAL protein, adding positive sheep anti-PAL Abs/acidified serum samples, followed by biotin-labeled PAL detection) was also performed. The plasma drug concentration results are shown in FIG. 4, and the antibody detection results after administration were shown in FIG. 4 and FIG. 5.

[2] = test system: anti-PAL4 protein antibodies; test: Anti-PAL4 protein antibody after multiple administrations in phenylketonuria model mice; type: in vivo; conditions: Pah^enu mice
[3] = Serum drug concentration after a single administration in phenylketonuria model mice (sandwich ELISA); type: in vivo; design: Blood drug concentration in serum: unit not given here; conditions: Pah^enu mice
Source text: Phenylalanine hydroxylase (PAH) was central to phenylalanine metabolism in animals, catalyzing the conversion of phenylalanine to tyrosine. Deficiency of this gene underlies phenylketonuria. […] Therefore, the homozygous mouse carrying the missense mutation F263S can be used as an animal model for phenylketonuria (referred to as the Pah^enu mouse or model mouse) in this drug study.
To evaluate the polyethylene glycol conjugate PL54 of the site-saturation modified phenylalanine lyase mutant, six Pah^enu mice were assigned to three groups of two mice each. PL54-5 (average degree of modification 13.60, specific enzyme activity 1.27 U/mg) from Table 3 of Example 2 was administered to the phenylketonuria animal model mice at low, medium, and high doses of 0.5 mg/kg, 1.5 mg/kg, and 4.5 mg/kg, respectively, via subcutaneous injection. Blood samples were collected from mice in each group at 1 h before administration and at 1, 3, 5, 7, 10, and 14 days after administration, respectively, and the content of PL54-5 in serum was detected by sandwich ELISA (for details, see Example 5).

[4] = test system: anti-PEG IgG and IgM antibodies; test: Comparative immunogenicity with Pegvaliase: anti-PEG IgG and IgM antibodies after multiple administrations; type: in vivo; conditions: Pah^enu mice, 3 mg/kg s.c. once weekly for four weeks
Source text: To evaluate the differences in pharmacodynamics and immunogenicity between the polyethylene glycol conjugate PL54-5 of directionally saturated modified phenylalanine lyase mutant and Pegvaliase (marketed drug), eight Pah^enu mice were allocated into two groups of four mice each, and administered with either PL54-5 (average degree of modification: 13.60, specific enzyme activity: 1.27 U/mg) from Table 3 of Example 2 or Pegvaliase Injection (manufactured by BioMarin, purchased lot number L161239, specification: 20 mg/mL/vial) at an administration dose of 3.0 mg/kg, once weekly via subcutaneous injection for four consecutive weeks. Blood samples were collected from each group of mice before administration and at 3 days and 7 days after each administration, respectively. Changes in serum phenylalanine concentration were measured (Reference: Judy Peat et al., Determination of Phenylalanine and Tyrosine by High Performance Liquid Chromatography-Tandem Mass Spectrometry) and anti-PEG-IgM/IgG antibody titers of each animal were determined at the end of the study (see Example 5 for details), to assess differences in pharmacodynamics and immunogenicity, as shown in FIG. 11 and FIG. 12.

[5] = Specific enzyme activity of phenylalanine lyase (trans-cinnamic acid formation, absorbance at 290 nm); type: biochemical
Experimental: Phenylalanine lyase specifically catalyzes the conversion of phenylalanine into trans-cinnamic acid with the release of ammonia. […] Enzyme activity is defined as the amount of enzyme required to produce 1 µmol of trans-cinnamic acid per minute in buffer (100 mmol/L Tris-HCl, pH 8.5) at room temperature (25°C) as one unit of enzyme activity.
The specific enzyme activity of phenylalanine lyase and its mutants (i.e., PAL, PAL2, PAL3, and PAL4 proteins) prepared in Example 1 was evaluated by taking an appropriate amount of test sample and diluting it to 0.4 mg/ml using assay buffer (100 mmol/L Tris-HCl, pH 8.0). 2.9 ml of substrate solution (100 mmol/L Tris-HCl, 45 mmol/L Phe, pH 8.0) was placed in a cuvette, followed by addition of 0.1 ml of diluted test solution and immediate mixing. The changes in absorbance per minute were recorded at a wavelength of 290 nm, and the specific enzyme activity was calculated according to the formula. Enzyme activity (U/mg) = (AS−AO)VN × 10^6 /εLTV1 [formula]
Where AS and AO represent the absorbance of trans-cinnamic acid at the […] of the reaction, respectively; V is the total volume (L) of the reaction system; L is the optical path length of the cuvette (cm); ε is the molar extinction coefficient of trans-cinnamic acid (10238.1 L/(mol·cm)); T is the reaction time (min); N is the dilution factor of the test sample; V1 is the volume of test sample (ml).
The enzyme activity retention rate was calculated by comparing the specific enzyme activity of phenylalanine lyase mutants with the specific enzyme activity of the phenylalanine lyase. Table 2: Specific enzyme activity of phenylalanine lyase mutants
The specific enzyme activity of the polyethylene glycol conjugates of phenylalanine lyase and its mutants prepared in Step 1 of Example 2 was determined according to the method described in Step 1 of this example. The enzyme activity retention rate was calculated by comparing the specific enzyme activity of each conjugate with its specific enzyme activity prior to PEG modification (e.g., the enzyme activity retention rate of PL5-1 = specific enzyme activity of PL5-1 / specific enzyme activity of PAL protein). Table 3: Specific enzyme activity of PEGylated phenylalanine lyase mutants

B1: PL54-5: polyethylene glycol conjugate of PAL4 (SEQ ID NO: 6) with PEG-SPA-5K, molar ratio 1:16, average degree of modification 13.60 (conjugate)
chain: MKTLSQAQSKTSSQQFSFTGNSSANVIIGNQKLTINDVARVARNGTLVSLTNNTDILQGIQASCDYINNAVKSGEPIYGVTSGFGGMANVAISREQASELQTNLVWFLKTGAGNKLPLADVRAAMLLRANSHMRGASGIRLELIKRMEIFLNAGVTPYVYEFGSIGASGDLVPLSYITGSLIGLDPSFKVDFNGKEMDAPTALRQLNLSPLTLLPKEGLAMMNGTSVMTGIAANCVYDTKILTAIAMGVHALDIQALNGTNQSFHPFIHNSKPHPGQLWAADQMISLLANSQLVRDELDGKHDYRDHELIQDRYSLRCLPQYLGPIVDGISQIAKQIEIEINSVTDNPLIDVDNQASYHGGNFLGQYVGMGMDHLRYYIGLLAKHLDVQIALLASPEFSNGLPPSLLGNRERKVNMGLKGLQICGNSIMPLLTFYGNSIADRFPTHAEQFNQNINSQGYTSATLARKSVDIFQNYVAIALMFGVQAVDLRTYKKTGHYDARASLSPATERLYSAVRHVVGQKPTSDRPYIWNDNEQGLDEHIAKISADIAAGGVIVQAVQDILPSLH
modifications: PEG-SPA-5K conjugate, ~13.6 PEG per molecule
For B1, the plasma drug maintenance [1] was “superior to that of PL5-1 and PL5-5”, the anti-PAL4 protein antibodies ([2]; intramuscular administration group) was “weak positivity” and the anti-PAL4 protein antibodies ([2]; subcutaneous administration group) was “negative”. For the same molecule, the “Blood drug concentration in serum” value ([3]; single 0.5 mg/kg s.c., 1-D1, dilution 1:500) was 0.3, the “Blood drug concentration in serum” value ([3]; single 0.5 mg/kg s.c., 1-D3, dilution 1:500) was 2.4 and the “Blood drug concentration in serum” value ([3]; single 0.5 mg/kg s.c., 1-D5, dilution 1:500) was 0.9. The “Blood drug concentration in serum” value ([3]; single 0.5 mg/kg s.c., 1-D7, dilution 1:500) was 0.2, the “Blood drug concentration in serum” value ([3]; single 0.5 mg/kg s.c., 1-D10, dilution 1:500) was 0.1 and the “Blood drug concentration in serum” value ([3]; single 0.5 mg/kg s.c., D0 (1 h before administration), dilution 1:50) was 0. The “Blood drug concentration in serum” value ([3]; single 1.5mg/kg s.c., 1-D1, dilution 1:500, 1.5 mg/kg) was 0.5 and 0.6, the “Blood drug concentration in serum” value ([3]; single 1.5mg/kg s.c., 1-D3, dilution 1:500, 1.5 mg/kg) was 2.7 and 2.2 and the “Blood drug concentration in serum” value ([3]; single 1.5mg/kg s.c., 1-D5, dilution 1:500) was 0.9. The “Blood drug concentration in serum” value ([3]; single 1.5mg/kg s.c., 1-D7, dilution 1:500, 1.5 mg/kg) was 0.4 and 0.3, the “Blood drug concentration in serum” value ([3]; single 1.5mg/kg s.c., D0 (1 h before administration), dilution 1:50) was 0 and the “Blood drug concentration in serum” value ([3]; single 4.5 mg/kg s.c., 1-D1, dilution 1:500, 4.5 mg/kg) was 1.6 and 0.8. For the same molecule, the “Blood drug concentration in serum” value ([3]; single 4.5 mg/kg s.c., 1-D3, dilution 1:500, 4.5 mg/kg) was 2.6 and 2.9, the “Blood drug concentration in serum” value ([3]; single 4.5 mg/kg s.c., 1-D5, dilution 1:500, 4.5 mg/kg) was 1.9 and 1.2 and the “Blood drug concentration in serum” value ([3]; single 4.5 mg/kg s.c., 1-D7, dilution 1:500, 4.5 mg/kg) was 0.8 and 0.4. The “Blood drug concentration in serum” value ([3]; single 4.5 mg/kg s.c., 1-D10, dilution 1:500) was 0, the “Blood drug concentration in serum” value ([3]; single 4.5 mg/kg s.c., 1-D14, dilution 1:500) was 0.2 and the “Blood drug concentration in serum” value ([3]; single 4.5 mg/kg s.c., D0 (1 h before administration), dilution 1:50) was 0. For the same molecule, the “plasma drug concentration in relation to the administration dose” value ([3]; single s.c. injection, 0.5, 1.5 and 4.5 mg/kg) was “directly proportional to the administration dose”, the “immunogenicity after long-term administration” value [4] was “significantly lower immunogenicity than pegvaliase” and the “Enzyme activity retention rate” value ([5]; conjugate compared with its protein prior to PEG modification) was 83%. For the same molecule, the Specific enzyme activity ([5]; polyethylene glycol conjugates, method as for the proteins) was 1.27 U/mg.
